Experiments:
[1] = biological target: human CD3 expressed on HEK293H cells (human) (UniProt P20963); assay: flow cytometry on HEK293H cells expressing human CD3
[2] = biological target: human TCR(2IAN)/CD3 expressed on HEK293H cells (human) (UniProt P04234); assay: flow cytometry on HEK293H cells expressing human TCR(2IAN)/CD3
[3] = biological target: human TCR/CD3 complex on purified primary human T cells (human); assay: flow cytometry on primary human T cells
Chain of human TCR/CD3 complex on purified primary human T cells (human) (delta, as listed by the source limits assumed, form in doubt, chain 1 of 4): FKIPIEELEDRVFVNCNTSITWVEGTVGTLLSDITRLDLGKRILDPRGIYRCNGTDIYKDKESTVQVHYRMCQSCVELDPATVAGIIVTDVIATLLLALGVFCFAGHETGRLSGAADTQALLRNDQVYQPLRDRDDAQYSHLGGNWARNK
Chain of human TCR/CD3 complex on purified primary human T cells (human) (gamma, as listed by the source limits assumed, form in doubt, chain 2 of 4): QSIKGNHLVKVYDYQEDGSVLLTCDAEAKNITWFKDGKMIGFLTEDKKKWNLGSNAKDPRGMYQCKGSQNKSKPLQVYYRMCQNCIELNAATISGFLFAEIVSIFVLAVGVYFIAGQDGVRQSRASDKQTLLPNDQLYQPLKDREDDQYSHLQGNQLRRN
Chain of human TCR/CD3 complex on purified primary human T cells (human) (epsilon, as listed by the source limits assumed, form in doubt, chain 3 of 4): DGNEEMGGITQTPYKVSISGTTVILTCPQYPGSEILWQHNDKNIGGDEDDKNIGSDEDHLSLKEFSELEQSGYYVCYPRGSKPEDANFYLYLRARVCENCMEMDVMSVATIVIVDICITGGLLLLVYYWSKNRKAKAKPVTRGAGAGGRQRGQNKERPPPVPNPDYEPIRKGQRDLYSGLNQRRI
Chain of human TCR/CD3 complex on purified primary human T cells (human) (zeta, as listed by the source limits assumed, form in doubt, chain 4 of 4): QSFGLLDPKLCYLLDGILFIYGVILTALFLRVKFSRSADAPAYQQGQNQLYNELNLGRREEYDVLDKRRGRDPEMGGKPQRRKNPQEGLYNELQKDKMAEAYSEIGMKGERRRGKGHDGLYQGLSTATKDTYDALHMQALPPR

Chain of human CD3 expressed on HEK293H cells (human) (chain, as listed by the source limits assumed, chain 1 of 4): as the sequence (delta, as listed by the source limits assumed, form in doubt, chain 1 of 4) above
Chain of human CD3 expressed on HEK293H cells (human) (chain, as listed by the source limits assumed, chain 2 of 4): as the sequence (gamma, as listed by the source limits assumed, form in doubt, chain 2 of 4) above
Chain of human CD3 expressed on HEK293H cells (human) (chain, as listed by the source limits assumed, chain 3 of 4): as the sequence (epsilon, as listed by the source limits assumed, form in doubt, chain 3 of 4) above
Chain of human CD3 expressed on HEK293H cells (human) (P20963 22-164 limits assumed, chain 4 of 4): as the sequence (zeta, as listed by the source limits assumed, form in doubt, chain 4 of 4) above

B1: T0170011A10 (VHH, not shown: small tags and cut ends)
VHH: EVQLVESGGGLVQGGGSLSLSCAASGRTFSSYAMAWFRQPPGKEREFVASISWSGENTNYRNSVKGRFTISRDNAKNTVYLQMNSLKPEDTAVYYCAAKIAKTYPDNWYWTKSNNYNYWGQGTQVTVSS
Question: B1 was tested. Which EC50 [1] did it give?
Answer: > 100 nM

Question: What about the MCF at 1 µM/top [1] of the same binder?
Answer: 3300 MCF

Question: What about the EC50 [2] of the same binder?
Answer: > 100 nM

Question: What about the MCF at 1 µM/top [2] of the same binder?
Answer: 15900 MCF

B2: T0170052G04 (VHH, not shown: small tags and cut ends)
VHH: EVQLVESGGGAVQPGGSLRLSCAASGIRISRNMMGWFRQAPGKQRDLVARITPGGDTYYVDSVKGRFSISKDNAKNTVYLQMNSLKPEDTAVYYCNSYSTLGSWGQGTQVTVSS
Question: Which results are given for B2?
Answer: EC50 [1]: > 100 nM; MCF at 1 µM/top [1]: 2850 MCF; EC50 [2]: > 100 nM; MCF at 1 µM/top [2]: 4950 MCF

B3: T017000016 (bispecific antibody)
chain: EVQLVESGGGLVQPGGSLRLSCTFSGGTFSSYTMGWFRQAPGKEREFVAEVRWGGVTTYSNSLKDRFSISEDSVKNAVYLQMNSLKPEDTAVYYCAAVRQMYMTVVPDYWGQGTLVTVSSGGGGSGGGGSGGGGSGGGGSGGGGSGGGGSGGGGSEVQLVESGGGSVQAGGSLRLSCAASGRTFSTNPMGWFRQVPGKERELIAAVRWADGNTFYADSVKGRFTISRDNAKKTVYLQMNSLKSEDTATYYCAAGRPWSAYHSPAEYVHWGQGTLVTVSSGAADYKDHDGDYKDHDIDYKDDDDKGAAHHHHHH
Question: For B3, which EC50 [3] is on record?
Answer: > 100 nM

Source: patent US20250388672A1
